Reference: US20020086017, “GA binding protein and neurite derived growth factors for use in the treatment of muscular dystrophy” (published 2002)

T1: GABP-alpha (Homo sapiens, UniProt Q06546 Q06546:1-454)
T1 sequence: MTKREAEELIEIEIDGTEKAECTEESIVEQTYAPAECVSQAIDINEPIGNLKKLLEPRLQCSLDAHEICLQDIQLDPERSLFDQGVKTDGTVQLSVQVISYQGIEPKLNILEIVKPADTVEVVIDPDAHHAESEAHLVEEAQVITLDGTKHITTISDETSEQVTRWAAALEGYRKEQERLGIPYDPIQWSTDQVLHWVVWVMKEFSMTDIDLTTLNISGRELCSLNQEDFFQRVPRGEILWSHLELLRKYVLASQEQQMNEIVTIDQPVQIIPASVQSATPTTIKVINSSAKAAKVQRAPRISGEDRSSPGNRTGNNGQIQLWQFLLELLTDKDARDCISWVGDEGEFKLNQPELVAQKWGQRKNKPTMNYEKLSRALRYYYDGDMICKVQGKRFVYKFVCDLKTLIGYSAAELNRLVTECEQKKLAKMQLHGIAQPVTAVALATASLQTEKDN


Assays:
[1] = test system: GABP-alpha + GABP-beta1 co-expressed in L6 cells (Homo sapiens); assay: cell_activity; details: luciferase reporter in L6 cells, n=24, p<0.001
[2] = target: GABP-alpha/GABP-beta1 heterodimer (Homo sapiens, UniProt Q06546;Q06547 Q06546:1-454,Q06547:2-395); assay: EMSA; enhanced relative to GABP-alpha alone, multimeric complexes; 20 mM HEPES pH 7.6, 1 mM MgCl2, 40 mM KCl, on ice; details: tags: GST fusions (pGEX), reconstituted in vitro; label: 32P 5'-end
Experimental: (§1) Nuclear extracts were prepared from dishes of L6 myotubes cultured to confluence and total proteins quantified, as previously described [Ausubel F et al; Current Protocols in Molecular Biology; Wiley, N.Y., 1995]. The double stranded UtroNBox probe used was 5′ATCTTCcggaa C 3′ (SEQ ID NO: 7) (N-box underlined, ets-domain italicised and lower case) which was end-labelled with g-P³² ATP using T4 Polynucleotide kinase. Typically, radiolabelled probe (1 ng c. 10-100,000 cpm) was incubated on ice for 20 minutes with 10 μg nuclear extracts or 1 μl GST fusion proteins in a 12.5 μL reaction buffer containing 20 mM HEPES pH 7.6, 1 mM MgCl₂, 0.1 mM EGTA, 40 mM KCl, 10% Glycerol, 1 μg ssDNA. Competition with cold probe was performed with pre-incubation with 1000× excess of unlabelled UtroNBox probe. Complexes were resolved by electrophoresis at 200 V for 2 Hours on 4% Acrylamide gels in 25 mM Tris, 192 mM Glycine, 1 mM EDTA (for nuclear extracts) and 12.5 mM Tris, 96 mM Glycine, 0.5 mM EDTA (for fusion proteins) prior to autoradiographic analysis using a Storm Phosphorimager (Molecular Dynamics, Sunnyvale, Calif.).
(§2) Electrophoretic mobility shift assay was performed with the radiolabelled oligonucleotide UtroNBox probe and purified GABP-α and GABP-β fusion proteins. […]

GABP-beta1 = GABP-beta1 (Homo sapiens, UniProt Q06547 Q06547:2-395); assay: EMSA; GABP-beta alone; 20 mM HEPES pH 7.6, 1 mM MgCl2, 40 mM KCl, on ice; details: tags: GST fusion (pGEX); label: 32P 5'-end
Experimental: as §1, §2

GABP-alpha = target: T1, GABP-alpha; assay: EMSA; competed by 1000x unlabelled probe; 20 mM HEPES pH 7.6, 1 mM MgCl2, 40 mM KCl, on ice; details: tags: GST fusion (pGEX); label: 32P 5'-end
Experimental: as §1, §2

Chain of GABP-alpha/GABP-beta1 heterodimer (Q06547 2-395, one chain of several): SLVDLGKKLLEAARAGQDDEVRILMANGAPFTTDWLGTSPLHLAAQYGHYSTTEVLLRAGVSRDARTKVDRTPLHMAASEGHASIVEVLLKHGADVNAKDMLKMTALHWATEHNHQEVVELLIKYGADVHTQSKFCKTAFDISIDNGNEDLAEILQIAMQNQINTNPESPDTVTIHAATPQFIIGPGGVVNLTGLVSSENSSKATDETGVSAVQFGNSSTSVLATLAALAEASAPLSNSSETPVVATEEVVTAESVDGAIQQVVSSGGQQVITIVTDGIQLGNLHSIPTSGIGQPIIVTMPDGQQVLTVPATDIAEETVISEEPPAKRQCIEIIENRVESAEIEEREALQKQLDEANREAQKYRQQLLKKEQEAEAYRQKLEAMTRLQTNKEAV
Chain of GABP-beta1 (Q06547 2-395, one chain of several): as above

Row | Molecule | activity [1] | binding result [2] | binding result (GABP-beta1) | binding result (GABP-alpha)
1 | human utrophin promoter in pPUBF luciferase reporter | 238 % of control | – | – | –
2 | UtroNBox probe (dsDNA) DNA 1: ATCTTCCGGAAC DNA 2: GTTCCGGAAGAT | – | binds | no binding | binds
